{
  "source": "paper PMC6158717",
  "binders": {"B1": {"name": "canonical TGACA palindrome 16mer (dsDNA)", "DNA 1": "ATTGACAGCTGTCAAT", "DNA 2": "ATTGACAGCTGTCAAT"}},
  "key": {"TGIF1-HD (171-250)": {"target": "TGIF1-HD (171-250) (Homo sapiens, UniProt Q15583 171-250)", "sequence (Q15583 171-250)": "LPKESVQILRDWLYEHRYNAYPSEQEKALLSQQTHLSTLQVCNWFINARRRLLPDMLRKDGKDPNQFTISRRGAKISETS", "assay": "ITC"}, "TGIF1-HD (160-250)": {"target": "TGIF1-HD (160-250) (Homo sapiens, UniProt Q15583 160-250)", "sequence (Q15583 160-250)": "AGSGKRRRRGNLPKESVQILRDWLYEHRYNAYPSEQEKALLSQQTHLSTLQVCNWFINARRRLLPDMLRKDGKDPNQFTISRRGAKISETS", "assay": "ITC"}, "TGIF1-HD R167A/R168A": {"target": "TGIF1-HD R167A/R168A (Homo sapiens, UniProt Q15583 161-250, R167A;R168A)", "sequence (Q15583 161-250 R167A/R168A)": "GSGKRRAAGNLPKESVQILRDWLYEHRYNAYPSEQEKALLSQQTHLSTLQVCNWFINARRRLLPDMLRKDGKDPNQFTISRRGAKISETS", "assay": "X-ray 3.25 A"}},
  "data": [
    {"binder": "B1", "values": [
      {"measurement": "Kd", "setting": "TGIF1-HD (171-250)", "result": "0.7281 ± 0.003", "unit": "µM"},
      {"measurement": "Kd", "setting": "TGIF1-HD (160-250)", "result": "0.17 ± 0.02", "unit": "µM"},
      {"measurement": "binding result", "setting": "TGIF1-HD R167A/R168A", "result": "binds"}
    ]}
  ]
}
